Test [1] has as its target T1, Recombinant water-soluble HLA-DR-2 molecules (DRB1*1501) (human, UniProt P01903 26-216; P01911 30-227, limits assumed).
T1 construct: Expressed in Drosophila S2 cells and purified on a Protein A-LB3.1 column 'as described (Kalandadze et al. 1996)'; also called HLA DR-2 (DRB1*1501); purified HLA-DR-2
The experiment in a line: competition ELISA, unlabeled inhibitor against biotinylated MBP 86-100 on soluble HLA-DR-2 (LB3.1 capture, streptavidin-AP). Background: An ELISA detects its analyte on a solid surface through an enzyme-linked reagent.

Test [2] concerns the target T2, Recombinant water-soluble HLA-DR-2 molecules (DRB1*1501) (human).
T2 chain 1: not shown
T2 chain 2: not shown
The experiment in a line: ELISA, biotinylated MBP 86-100 (0.13 uM) on soluble HLA-DR-2, no competitor; background 0.1.

No end group written: not given here.

B1: MBP 85-99 (SEQ ID NO: 2), unlabeled (peptide)
peptide: ENPVVHFFKNIVTPR
notes: also called unlabeled MBP 85-99 peptide; synthetic unlabeled peptide control MBP 85-99
Regarding B1, the binding result in test [1] is reported as “binds”.

B2: Biotinylated MBP 86-100 (SEQ ID NO: 1) (peptide)
peptide: SGSGNPVVHFFKNIVTPRT
modifications: not fully specified
Take B2: the signal at 410 nm without competitor (absorbance at 410 nm) in test [2] lay in the range of 0.8 to 0.9.

These data come from patent publication US20040038887A1 (Harvard, published 2004).
